Laboratory results published in US20080075726A1 (VACCINEX, published 2008).

Target: T1, recombinant human IL-6 (human, UniProt P05231 30-212, limits assumed)
T1 construct: also called rhIL6; human recombinant IL-6
Test: competition ELISA, rhIL-6 in solution against captured IL-6
Experimental: Briefly, plates were coated with 2 μg/ml of mBE4 capture antibody in coating buffer, 100 μl per well. The plates were incubated overnight. Next, the plates were washed 3 times and tapped dry. The plates were then blocked with 200 μl per well of Assay Diluent or 10% FBS in PBS and incubated for 2 hours. […] The reaction was left at RT for 3-4 hours. […] Next, the plates were washed 3 times and tapped dry. […] The plates were incubated for 1-2 hours. The plates were washed 3 times and tapped dry. […] The plates were incubated at RT for 2 hours. (Therefore, any unbound mAb at this point will be measured by ELISA). Plates were then washed 5 times and tapped dry. 100 μl of detection Ab goat anti-human IgG F(ab)′2-HRP (Jackson lab) was added at 1:20,000 dilutions or 1:40,000 dilutions (depending on lot) and the plates were incubated for 1-2 hours. The plates were washed 7 times and tapped dry. Next, the Developer Substrate (equal parts of each reagent in the kit) was pre-mixed and allowed to warm to room temperature before use. Then 100 μl of Developer was added to each well. The plates were allowed to develop for 15 minutes un-sealed in a drawer in the dark. Finally, developing was stopped by adding 100 μl of 2N H₂SO₄ to each well and plates were read as Endpoint at 450 nm-[…].

Row | Binder | IC50 [pM]
1 | mAb 186 (antibody, V domains shown) VH: QVTLKESGPALVKPTQTLTLTCTFSGFSLTTSGMCVSWIRQPPGKALEWLALIYWDDDKRYNPSLRSRLTITKDTSKNQVVLTMTNMDPVDTATYYCARSYDDYLYYALDYWGQGTLVT VL: DVVMTQSPSSLSASVGGRVTITCRASQTIGDYLNWYQQKPGKAPRLLIYSASIVQSGVPSRFSASGSGTDFTLTISSLQPEDFATYSCQQSYSFPLTFGGGTKLEIK | 2000
2 | mAb 187 (antibody, V domains shown) VH: QVTLKESGPALVKPTQTLTLTCTFSGFSLTTSGMCVSWIRQPPGKALEWLALIYWDDDKRYNPSLRSRLTITKDTSKNQVVLTMTNMDPVDTATYYCARSYDDYLYYALDYWGQGTLVT VL: EIVLTQSPSSLSASAGDTVTIACRASQGIRTALAWYQQKPGRNPKLLISEAYRLQSGVSPKFSGSGFGTDFTLTINSLQPEDFATYYCQQFNDFPLTFGGGTKLEIK | 2400
3 | mAb 189 (antibody, V domains shown) VH: QVTLKESGPALVKPTQTLTLTCTFSGFSLTTSGMCVSWIRQPPGKALEWLALIYWDDDKRYNPSLRSRLTITKDTSKNQVVLTMTNMDPVDTATYYCARSYDDYLYYALDYWGQGTLVT VL: DIQMTQSPSSLSAFVGDGVTMTCWASQSINDYLNWYHQRPGEAPELLVFAASNLQIGVPSRFRGSGSETYFTLTINSLQPEDSGTYFCQQTSSFPLTFGGGTKLE | 720
4 | mAb 188 (antibody, V domains shown) VH: QVTLKESGPALVKPTQTLTLTCTFSGFSLTTSGMCVSWIRQPPGKALEWLALIYWDDDKRYNPSLRSRLTITKDTSKNQVVLTMTNMDPVDTATYYCARSYDDYLYYALDYWGQGTLVT VL: DIQMTQSPSTLSASVGDRVTITCRASQSISRWLAWYQQKPGKAPKLLISKASSLEYGVPSRFSGSGSGTEFALTISNVQPEDFATYYCQQSFAVPLTFGGGTKLEIK | 1400
5 | mAb 1123 (antibody, V domains shown) VH: QVTLKESGPTLVKPTQTLTLTCSFSGFSLSTSGVGVGWVRQPPGKALEWLAFIFWDDDKYYSPSLESRLTITKDTSKNQVVLTMTNMDPVDTATYYCARFYDDYLYYALDYWGQGTLVT VL: DIQMTQSPSSLSAFVGDGVTMTCWASQSINDYLNWYHQRPGEAPELLVFAASNLQIGVPSRFRGSGSETYFTLTINSLQPEDSGTYFCQNGHSFPLTFGGGTKLEI | 110
6 | mAb 275 (antibody, V domains shown) VH: QVTLKESGPALVKPTQTLTLTCTFSGFSLTTSGMCVSWIRQPPGKALEWLALIYWDDDKRYNPSLRSRLTITKDTSKNQVVLTMTNMDPVDTATYYCARSYDDYLYYALDYWGQGTLVT VL: DIQMTQSPSSLSAFVGDGVTMTCWASQSINDYLNWYHQRPGEAPELLVFAASNLQIGVPSRFRGSGSETYFTLTINSLQPEDSGTYFCQNGHSFPLTFGGGTKLEI | 700
7 | mAb 1154 (antibody, V domains shown) VH: QVTLKESGPTLVKPTQTLTLTCSFSGFSLSTSGVGVGWVRQPPGKALEWLAFIFWDDDKYYSPSLESRLTITKDTSKNQVVLTMTNMDPVDTATYYCARSADDYLYYSFDTWGQGTLVT VL: DIQMTQSPSSLSAFVGDGVTMTCWASQSINDYLNWYHQRPGEAPELLVFAASNLQIGVPSRFRGSGSETYFTLTINSLQPEDSGTYFCQNGHSFPLTFGGGTKLEI | 27
8 | mAb 1155 (antibody, V domains shown) VH: QVTLKESGPTLVKPTQTLTLTCSFSGFSLSTSGVGVGWVRQPPGKALEWLAFIFWDDDKYYSPSLESRLTITKDTSKNQVVLTMTNMDPVDTATYYCARSADDYLYYSFDTWGQGTLVT VL: DIQMTQSPSSLSAFVGDGVTMTCWASQSINDYLNWYHQRPGEAPELLVFAASNLQIGVPSRFRGSGSETYFTLTINSLQPEDSGTYFCQHGHSFPLTFGGGTKLEI | 32
9 | mAb 1127 (antibody, V domains shown) VH: QVTLKESGPTLVKPTQTLTLTCSFSGFSLSTSGVGVGWVRQPPGKALEWLAFIFWDDDKYYSPSLESRLTITKDTSKNQVVLTMTNMDPVDTATYYCARSYDDYLMYALDYWGQGTLVT VL: DIQMTQSPSSLSAFVGDGVTMTCWASQSINDYLNWYHQRPGEAPELLVFAASNLQIGVPSRFRGSGSETYFTLTINSLQPEDSGTYFCQNGHSFPLTFGGGTKLEI | 90
10 | mAb 810 (antibody, V domains shown) VH: QVTLKESGPTLVKPTQTLTLTCSFSGFSLSTSGVGVGWVRQPPGKALEWLAFIFWDDDKYYSPSLESRLTITKDTSKNQVVLTMTNMDPVDTATYYCARSYDDYLYYSLDYWGQGTLVT VL: DIQMTQSPSSLSAFVGDGVTMTCWASQSINDYLNWYHQRPGEAPELLVFAASNLQIGVPSRFRGSGSETYFTLTINSLQPEDSGTYFCQNGHSFPLTFGGGTKLEI | 220
11 | mAb 1156 (antibody, V domains shown) VH: QVTLKESGPTLVKPTQTLTLTCSFSGFSLSTSGVGVGWVRQPPGKALEWLAFIFWDDDKYYSPSLESRLTITKDTSKNQVVLTMTNMDPVDTATYYCARSADDYLYYSFDTWGQGTLVT VL: DIQMTQSPSSLSAFVGDGVTMTCWASQSINDYLNWYHQRPGEAPELLVFAASNLQIGVPSRFRGSGSETYFTLTINSLQPEDSGTYFCQSGHSFPLTFGGGTKLEI | 23
12 | mAb 968 (antibody, V domains shown) VH: QVTLKESGPTLVKPTQTLTLTCSFSGFSLSTSGVGVGWVRQPPGKALEWLAFIFWDDDKYYSPSLESRLTITKDTSKNQVVLTMTNMDPVDTATYYCARSYDDYLYYAFDYWGQGTLVT VL: DIQMTQSPSSLSAFVGDGVTMTCWASQSINDYLNWYHQRPGEAPELLVFAASNLQIGVPSRFRGSGSETYFTLTINSLQPEDSGTYFCQNGHSFPLTFGGGTKLEI | 53
13 | mAb 774 (antibody, V domains shown) VH: QVTLKESGPTLVKPTQTLTLTCSFSGFSLSTSGVGVGWVRQPPGKALEWLAFIFWDDDKYYSPSLESRLTITKDTSKNQVVLTMTNMDPVDTATYYCARSYDDYLYYALDYWGQGTLVT VL: DIQMTQSPSSLSAFVGDGVTMTCWASQSINDYLNWYHQRPGEAPELLVFAASNLQIGVPSRFRGSGSETYFTLTINSLQPEDSGTYFCQSGHSFPLTFGGGTKLEI | 160
14 | mAb 808 (antibody, V domains shown) VH: QVTLKESGPTLVKPTQTLTLTCSFSGFSLSTSGVGVGWVRQPPGKALEWLAFIFWDDDKYYSPSLESRLTITKDTSKNQVVLTMTNMDPVDTATYYCARSYDDYLYYALDYWGQGTLVT VL: DIQMTQSPSSLSAFVGDGVTMTCWASQSINDYLNWYHQRPGEAPELLVFAASNLQIGVPSRFRGSGSETYFTLTINSLQPEDSGTYFCQNGWSFPLTFGGGTKLEI | 80
15 | mAb 992 (antibody, V domains shown) VH: QVTLKESGPTLVKPTQTLTLTCSFSGFSLSTSGVGVGWVRQPPGKALEWLAFIFWDDDKYYSPSLESRLTITKDTSKNQVVLTMTNMDPVDTATYYCARSYDDYLYYALDTWGQGTLVT VL: DIQMTQSPSSLSAFVGDGVTMTCWASQSINDYLNWYHQRPGEAPELLVFAASNLQIGVPSRFRGSGSETYFTLTINSLQPEDSGTYFCQNGHSFPLTFGGGTKLEI | 65
16 | mAb 1192 (antibody, V domains shown) VH: QVTLKESGPTLVKPTQTLTLTCSFSGFSLSTSGVGVGWVRQPPGKALEWLAFIWWDDDKYYSPSLESRLTITKDTSKNQVVLTMTNMDPVDTATYYCARSYDDYLYYALDYWGQGTLVT VL: DIQMTQSPSSLSAFVGDGVTMTCWASQSINDYLNWYHQRPGEAPELLVFAASNLQIGVPSRFRGSGSETYFTLTINSLQPEDSGTYFCQNGHSFPLTFGGGTKLEI | 29
17 | mAb 765 (antibody, V domains shown) VH: QVTLKESGPTLVKPTQTLTLTCSFSGFSLSTSGVGVGWVRQPPGKALEWLAFIFWDDDKYYSPSLESRLTITKDTSKNQVVLTMTNMDPVDTATYYCARSYDDYLYYALDYWGQGTLVT VL: DIQMTQSPSSLSAFVGDGVTMTCWASQSINDYLNWYHQRPGEAPELLVFAASNLQIGVPSRFRGSGSETYFTLTINSLQPEDSGTYFCQNAHSFPLTFGGGTKLEI | 70
18 | mAb 770 (antibody, V domains shown) VH: QVTLKESGPTLVKPTQTLTLTCSFSGFSLSTSGVGVGWVRQPPGKALEWLAFIFWDDDKYYSPSLESRLTITKDTSKNQVVLTMTNMDPVDTATYYCARSYDDYLYYALDYWGQGTLVT VL: DIQMTQSPSSLSAFVGDGVTMTCWASQSINDYLNWYHQRPGEAPELLVFAASNLQIGVPSRFRGSGSETYFTLTINSLQPEDSGTYFCQHGHSFPLTFGGGTKLEI | 120
19 | mAb 191 (antibody, V domains shown) VH: QVTLKESGPALVKPTQTLTLTCTFSGFSLTTSGMCVSWIRQPPGKALEWLALIYWDDDKRYNPSLRSRLTITKDTSKNQVVLTMTNMDPVDTATYYCARSYDDYLYYALDYWGQGTLVT VL: DVVMTQSPSSLSASVGGRVTITCRASQTIGDYLNWYQQRPGKAPRLLIYSASIVQSGVPSRFSGSGSGTHFTLTISSLQPEDFATYSCQQSYSFPLTFGGGTKLEIK | 1500
20 | mAb 963 (antibody, V domains shown) VH: QVTLKESGPTLVKPTQTLTLTCSFSGFSLSTSGVGVGWVRQPPGKALEWLAFIFWDDDKYYSPSLESRLTITKDTSKNQVVLTMTNMDPVDTATYYCARSGDDYLYYALDYWGQGTLVT VL: DIQMTQSPSSLSAFVGDGVTMTCWASQSINDYLNWYHQRPGEAPELLVFAASNLQIGVPSRFRGSGSETYFTLTINSLQPEDSGTYFCQNGHSFPLTFGGGTKLEI | 90
